Type in all cases: biochemical
In assay [1] the target is T1, rat brain farnesyl:protein transferase (Rattus norvegicus, UniProt Q02293+Q04631).
T1 construct: Brains from 50 male Sprague-Dawley rats (100-150 g) were homogenized; from tissue
The assay is described as follows: Farnesyl:protein transferase inhibition: competition with p21H-ras for [3H]farnesyl from [3H]FPP, partially purified enzyme, TCA filter assay. How it is done: Farnesyl:protein transferase activity was determined by measuring the amount of ^3H-farnesol transferred from ^3H]farnesyl pyrophosphate ([^3H]FPP) to p21^H-ras protein. The standard reaction mixture contained the following concentrations of components in a final volume of 25 μl: 50 mM Tris-chloride (pH 7.5), 50 μM ZnCl2, 20 mM KCl, 1 mM DTT, and 40 μM p21^H-ras. The mixture also contained 10 pmoles of [^3H]FPP (−30,000 dpm/pmol) and 1.8-3.5 μg of partially purified farnesyl:protein transferase (see below). After incubation for 1 h at 37° C. in 12×75-mm borosilicate tubes, the reaction was stopped by addition of 0.5 ml of 4% SDS and then 0.5 ml of 30% trichloroacetic acid (TCA).
The tubes were vortexed and left on ice for 45-60 min, after which 2 ml of a 6% TCA/2% SDS solution were added. […] The tubes were rinsed twice with 2 ml of the same solution, and each filter was washed five times with 2 ml of 6% TCA, dried, and counted in a scintillation counter. One unit of activity is defined as the amount of enzyme that transfers 1 pmol of [^3H]farnesol from [^3H]FPP into acid-precipitable p21^H-ras per hour under the standard conditions.
In the enzyme characterization experiments of FIGS. 1-4, 8, and 9, a partially purified fraction of farnesyl:protein transferase was used. […] The column was equilibrated with 50 mM Tris-chloride (pH 7.5) containing 1 mM DTT, 0.2 M NaCl, 20 μM ZnCl2, and 0.2% octyl-β-glucopyranoside and eluted with the same buffer at a flow rate of 15 ml/h.
This blank value was subtracted before calculating “% of control” values.

In assay [2] the target is T2, purified farnesyl:protein transferase (Rattus norvegicus, UniProt Q02293+Q04631).
T2 construct: Brains from 50 male Sprague-Dawley rats (100-150 g) were homogenized; from tissue
The assay is described as follows: Farnesylation of tetrapeptides by purified farnesyl:protein transferase, thin layer chromatography (substrate or pure inhibitor). The note with it: 3.6 μM tetrapeptide, purified enzyme (FIG. 15). The procedure: FIG. 15. […] The standard assay mixture (25 μl) contained 17 pmol [^3H]FPP (44,000 dpm/pmol), 5 ng of purified farnesyl:protein transferase, 0.2% (w/v) octyl-β-D-glucoside, and 3.6 μM of the indicated tetrapeptide. After incubation for 15 min at 37° C., the entire reaction mixture was subjected to thin layer chromatography for 4 h on Polygram SIL G sheet (Brinkmann Instruments) in a solvent system containing N-propanol/concentrated NH4OH/water (6:3:1). The TLC sheet was then dried, sprayed with ENHANCE Spray (Dupont-New England Nuclear) and exposed to Kodak X-OMAT AR Film XAR-5 for 25 h at −70° C.

Assay [3] concerns the target T3, partially purified rat brain farnesyl:protein transferase (Rattus norvegicus, UniProt Q02293+Q04631).
T3 construct: Brains from 50 male Sprague-Dawley rats (100-150 g) were homogenized; from tissue
Put plainly: Substrate saturation of farnesyl:protein transferase (FIG. 2). The note with it: 1 h at 37° C. How it is done:
FIG. 2. Substrate Saturation Curves for Farnesyl:Protein Transferase. Panel A, each standard reaction mixture contained 1.8 μg of partially purified farnesyl transferase, 40 μg p21^H-ras, [^3H]FPP (250,000 dpm); and varying amounts of unlabeled FPP to give the indicated final concentration of [^3H]FPP. […] For both panels, assays were carried out in duplicate for 1 h at 37° C., and TCA-precipitable radioactivity was measured as described in the Example.
Farnesyl:protein transferase activity was determined by measuring the amount of ^3H-farnesol transferred from ^3H]farnesyl pyrophosphate ([^3H]FPP) to p21^H-ras protein. The standard reaction mixture contained the following concentrations of components in a final volume of 25 μl: 50 mM Tris-chloride (pH 7.5), 50 μM ZnCl2, 20 mM KCl, 1 mM DTT, and 40 μM p21^H-ras. The mixture also contained 10 pmoles of [^3H]FPP (−30,000 dpm/pmol) and 1.8-3.5 μg of partially purified farnesyl:protein transferase (see below). […]
The tubes were vortexed and left on ice for 45-60 min, after which 2 ml of a 6% TCA/2% SDS solution were added. […] The tubes were rinsed twice with 2 ml of the same solution, and each filter was washed five times with 2 ml of 6% TCA, dried, and counted in a scintillation counter. […]

Entries after “also recorded” stand apart in the source; their conditions may differ. Residues, ends and D or L forms follow the SMILES beside them. No end group written: not given here.

With “S-acetoamidated CVIM: CVIM alkylated on cysteine with iodoacetamide (C(acetamide)VIM)”, the “inhibitory activity against farnesylation of p21H-ras (in words)” value (“inhibitory activity” for short) in assay [1] was “appears to lose much of its inhibitory activity”. For “CFVM: related peptide, inhibitory through action as a substrate for farnesylation (CVFM)”, the “pure inhibitor or substrate for farnesylation” value in assay [2] is listed as “not a “pure” inhibitor”. With `CC(C)=CCC/C(C)=C/CC/C(C)=C/COP(=O)(O)OP(=O)(O)O` [[^3H]farnesyl pyrophosphate, [1-^3H]Farnesyl pyrophosphate], the “concentration giving half-maximal reaction velocity” value in assay [3] is recorded as “approximately 0.5 μM”.

As to “TKVCIM: hexapeptide with cysteine transposed from fourth to third position from the COOH-terminus”, in assay [1], the “inhibitory activity” value is “severely reduced inhibitory activity; also recorded: inhibitory activity of the peptide is reversed”. Consider `CC[C@H](C)[C@H](NC(=O)[C@@H](NC(=O)[C@@H](N)CS)C(C)C)C(=O)N[C@@H](CCSC)C(=O)O` [CVIM] (H-CVIM-OH; N-terminus and C-terminus assumed), for which the “inhibitory activity” value in assay [1] is “sufficient for competition”. The “pure inhibitor or substrate for farnesylation” value in assay [2] is reported as “Farnesylation”.
